Data on four molecules can be found in paper PMC8510090, “The DNA Recognition Motif of GapR Has an Intrinsic DNA Binding Preference towards AT-rich DNA” (Molecules, 2021).

Data set [1] deals with the molecule itself. The data set is described as follows: crystal structure; hanging drop vapor diffusion at room temperature; protein 10 mg/mL in 50 mM HEPES pH 7.0, 300 mM NaCl; 0.1 M sodium cacodylate pH 6.0, 15% PEG4000; 2.08 angstrom.
The target of data set [2] is T1, GapRΔC17 (Caulobacter crescentus, UniProt B8H4R9 1-72).
T1 sequence: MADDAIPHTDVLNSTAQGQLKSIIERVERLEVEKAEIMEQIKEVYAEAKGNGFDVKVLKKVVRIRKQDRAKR
Kind of data set: MST; MST: 20 mM PBS, 150 mM NaCl, 0.02% n-dodecyl-β-D-maltoside, pH 7, 20 nM labeled dimer (labeling at room temperature); NMR netropsin competition: 50 mM sodium phosphate, 150 mM NaCl, pH 7.0, 90% H2O/5% D2O (so in the source). The conditions noted are these: protein: recombinant, tags: C-terminal His6, chain copies: 2.

In data set [3] the target is T1, GapRΔC17. Kind of data set: NMR titration (1H-15N HSQC); MST: 20 mM PBS, 150 mM NaCl, 0.02% n-dodecyl-β-D-maltoside, pH 7, 20 nM labeled dimer (labeling at room temperature); NMR netropsin competition: 50 mM sodium phosphate, 150 mM NaCl, pH 7.0, 90% H2O/5% D2O (so in the source). The settings on record: protein: recombinant; tags: C-terminal His6; chain copies: 2.

B1: GapR^ΔC17 (DNA binding domain of GapR, residues 1–72) (domain or fragment, Caulobacter crescentus, UniProt B8H4R9 1-72, looked up)
chain: T1 sequence
notes: GapR, nucleoid-associated protein of Caulobacter crescentus, gene gapr (CCNA_03428), residues 1-72 (the C-terminal 17 residues, most of helix α3, deleted); 8.2 kDa; Cloned into the NdeI and XhoI sites of pET-21a(+) and followed by a C-terminal His6-tag; A selenomethionyl derivative was used for phasing; also called DNA recognition motif of GapR; dimer unit of GapR; source: E. coli Rosetta (DE3), …
B1: in data set [1], the binding result was “binds”.

B2: 6A DNA (dsDNA)
DNA 1: CGCAAAAAAGCG
DNA 2: CGCTTTTTTGCG
As for B2, the Kd in the data set with GapRΔC17 [2] (blunt) is 1.1 ± 0.1 µM.

B3: 6CG DNA (dsDNA)
DNA 1: CGCGCGCGCGCG
DNA 2: CGCGCGCGCGCG
Consider B3, for which, in the data set with GapRΔC17 [2], the equilibrium dissociation constant (Kd) is 18 ± 2 µM.

B4: 3AT DNA (dsDNA)
DNA 1: CGCATATATGCG
DNA 2: CGCATATATGCG
Regarding B4, the binding result with GapRΔC17 [3] is “binds”.
